The supplement of paper PMC10065799, “High-throughput profiling of sequence recognition by tyrosine kinases and SH2 domains using bacterial peptide display” (eLife, 2023)

Molecular target: Hck (UniProt P08631)
Assay: phosphorylation enrichment, bacterial display (enrichment ratio); higher = better substrate or ligand; peptides without Tyr show the background
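Note: 11-residue human phosphosite peptides and single-mutation variants displayed on the E. coli surface, counted by deep sequencing, each peptide's frequency after selection divided by its frequency in the unselected input library; frequency after pTyr selection over input frequency; kinase dosed for 20-30% of maximal phosphorylation in three min.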

Hck, sequence (P08631 whole entry, looked up): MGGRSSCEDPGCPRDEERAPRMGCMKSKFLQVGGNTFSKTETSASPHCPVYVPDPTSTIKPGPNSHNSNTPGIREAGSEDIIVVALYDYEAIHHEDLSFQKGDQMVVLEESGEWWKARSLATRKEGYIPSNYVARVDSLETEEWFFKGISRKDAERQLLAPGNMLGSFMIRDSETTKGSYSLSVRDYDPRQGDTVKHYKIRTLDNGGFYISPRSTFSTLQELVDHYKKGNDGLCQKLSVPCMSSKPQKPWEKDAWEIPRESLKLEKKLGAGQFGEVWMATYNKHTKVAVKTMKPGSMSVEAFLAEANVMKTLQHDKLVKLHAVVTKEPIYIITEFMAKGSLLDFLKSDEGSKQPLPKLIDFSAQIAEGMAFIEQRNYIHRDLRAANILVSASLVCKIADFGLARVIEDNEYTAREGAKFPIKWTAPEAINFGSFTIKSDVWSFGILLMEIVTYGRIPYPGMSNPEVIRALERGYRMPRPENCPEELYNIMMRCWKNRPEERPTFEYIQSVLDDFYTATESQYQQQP

Row | Sequence | phosphorylation enrichment
1 | RSFLSYYTSHV [NEFL_Y442_P440L] | 0.421
2 | CKLFQYFLDHL [ATRX_Y1849_YF] | 0.585
3 | MFNPMYALFRT [HUWE1_Y4078] | 4.67
4 | QMIETYFDFRL [NSMF_Y506] | 5.25
5 | KNKNRCKNILP [PTPN11_Y279_Y279C] | 0.481
6 | KNDSNYVVKGN [KIT_Y823] | 0.406
7 | VVRSLYEDLED [VHL_Y185_I180V] | 0.573
8 | EVKAQYEDIAQ [KRT1_Y358] | 0.69
9 | DRPASYLEKVR [KRT13_Y118_L115P] | 0.284
10 | YAFQLYDLDRD [CHP2_Y123] | 1.73
11 | TTANRYLKVSD [MYOM2_Y871] | 0.607
12 | NQNIGYKLGHR [KCNN3_Y268] | 0.396
13 | LEIETYRRLRD [KRT12_Y429_L433R] | 0.674
14 | CPEARYNRSPI [PTAR1_Y42] | 0.492
15 | GAVGHYVLAER [HFE_Y342_M339V] | 0.454
16 | EKMWSYTKSAE [GRIA3_Y705_M706T] | 0.451
17 | SEDANYKRVSC [TTC3_Y1288] | 0.532
18 | GHNDVYILEHV [GRIN2A_Y1423_S1425L] | 1.04
19 | MTRDIYRASYY [ALK_Y1278_A1274T] | 1.17
20 | VDSIEYEVASQ [SLC7A7_Y7_T5I] | 0.567
21 | GEVLVYAEDPA [FLNA_Y319_V320A] | 0.543
22 | RARIRYAQEHD [NSD1_Y1987] | 0.85
23 | FQKDVYNIPPS [NEDD9_Y177_D178N_YF] | 1.31
24 | SFPHEYGSQEG [RBM10_Y48_R46H_YF] | 0.679
25 | LVVFEYMRHGD [NTRK1_Y591_M587V] | 0.475
26 | KNRDVSSSDFF [USP24_Y2134_Y2134S_YF] | 0.425
27 | GEETDYTPVWC [UROD_Y30] | 0.556
28 | YSDPSYVKQME [CDC5L_Y464] | 0.593
29 | NAGDYYDLYGG [PTPN11_Y63_T59A] | 6.95
30 | LPEVSYVKAID [GLRA1_Y307_K304E] | 0.203

Molecular target: Jak2 (UniProt O60674)
Assay: as above

Jak2, sequence (O60674 whole entry, looked up): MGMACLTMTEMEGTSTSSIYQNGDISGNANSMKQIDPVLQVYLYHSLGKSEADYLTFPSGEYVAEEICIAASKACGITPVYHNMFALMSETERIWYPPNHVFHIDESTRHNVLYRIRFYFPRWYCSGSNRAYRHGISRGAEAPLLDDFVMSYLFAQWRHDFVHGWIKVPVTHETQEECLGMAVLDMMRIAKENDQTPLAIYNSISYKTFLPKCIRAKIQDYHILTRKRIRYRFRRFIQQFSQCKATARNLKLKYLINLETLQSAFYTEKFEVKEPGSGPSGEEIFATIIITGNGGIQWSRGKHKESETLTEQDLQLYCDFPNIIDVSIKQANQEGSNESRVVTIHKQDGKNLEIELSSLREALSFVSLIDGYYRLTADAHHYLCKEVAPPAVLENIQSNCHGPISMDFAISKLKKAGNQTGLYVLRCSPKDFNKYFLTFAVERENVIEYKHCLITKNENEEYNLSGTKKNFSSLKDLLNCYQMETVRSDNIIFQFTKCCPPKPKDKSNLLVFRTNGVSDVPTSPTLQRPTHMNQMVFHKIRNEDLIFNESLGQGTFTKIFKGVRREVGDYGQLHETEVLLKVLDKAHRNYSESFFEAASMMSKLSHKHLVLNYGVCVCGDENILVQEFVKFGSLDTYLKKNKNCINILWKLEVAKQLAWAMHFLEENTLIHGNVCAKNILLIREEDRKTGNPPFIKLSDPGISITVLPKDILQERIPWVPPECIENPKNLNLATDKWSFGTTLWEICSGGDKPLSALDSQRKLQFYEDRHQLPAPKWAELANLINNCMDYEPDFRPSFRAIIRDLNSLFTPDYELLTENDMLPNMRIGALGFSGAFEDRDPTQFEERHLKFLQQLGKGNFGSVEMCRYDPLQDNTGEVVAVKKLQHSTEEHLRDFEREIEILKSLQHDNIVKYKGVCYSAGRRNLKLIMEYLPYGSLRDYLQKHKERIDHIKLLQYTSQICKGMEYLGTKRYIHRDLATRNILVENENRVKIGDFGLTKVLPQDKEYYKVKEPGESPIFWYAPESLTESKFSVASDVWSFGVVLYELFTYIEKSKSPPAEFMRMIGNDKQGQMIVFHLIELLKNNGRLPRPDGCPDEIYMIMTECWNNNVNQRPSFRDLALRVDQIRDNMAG

Row | Sequence | phosphorylation enrichment
31 | AFLGEYIPTVF [RAC2_Y32_P29L] | 1.49
32 | ESMLRYEVFGG [STOX1_Y607_YF] | 1.09
33 | QLQQAYQEAFE [YWHAZ_Y149_S145L] | 1.77
34 | RSFLSYYTSHV [NEFL_Y442_P440L] | 1.71
35 | CKLFQYFLDHL [ATRX_Y1849_YF] | 1.3
36 | MFNPMYALFRT [HUWE1_Y4078] | 0.827
37 | QMIETYFDFRL [NSMF_Y506] | 6.57
38 | KNKNRCKNILP [PTPN11_Y279_Y279C] | 1.48
39 | KNDSNYVVKGN [KIT_Y823] | 0.482
40 | VVRSLYEDLED [VHL_Y185_I180V] | 1.21
41 | EVKAQYEDIAQ [KRT1_Y358] | 1.06
42 | DRPASYLEKVR [KRT13_Y118_L115P] | 0.43
43 | YAFQLYDLDRD [CHP2_Y123] | 0.969
44 | TTANRYLKVSD [MYOM2_Y871] | 0.492
45 | NQNIGYKLGHR [KCNN3_Y268] | 0.391
46 | LEIETYRRLRD [KRT12_Y429_L433R] | 1.23
47 | CPEARYNRSPI [PTAR1_Y42] | 0.641

Row | Sequence | phosphorylation enrichment
48 | GAVGHYVLAER [HFE_Y342_M339V] | 0.453
49 | EKMWSYTKSAE [GRIA3_Y705_M706T] | 0.592
50 | SEDANYKRVSC [TTC3_Y1288] | 1.06
51 | GHNDVYILEHV [GRIN2A_Y1423_S1425L] | 0.668
52 | MTRDIYRASYY [ALK_Y1278_A1274T] | 0.63
53 | VDSIEYEVASQ [SLC7A7_Y7_T5I] | 1.36
54 | GEVLVYAEDPA [FLNA_Y319_V320A] | 0.814
55 | RARIRYAQEHD [NSD1_Y1987] | 0.691
56 | FQKDVYNIPPS [NEDD9_Y177_D178N_YF] | 1.75
57 | SFPHEYGSQEG [RBM10_Y48_R46H_YF] | 0.645
58 | LVVFEYMRHGD [NTRK1_Y591_M587V] | 0.761
59 | KNRDVSSSDFF [USP24_Y2134_Y2134S_YF] | 0.641
60 | GEETDYTPVWC [UROD_Y30] | 1.04
61 | YSDPSYVKQME [CDC5L_Y464] | 0.557
62 | NAGDYYDLYGG [PTPN11_Y63_T59A] | 4.53
63 | LPEVSYVKAID [GLRA1_Y307_K304E] | 0.44

Molecular target: MERTK (UniProt Q12866)
Assay: as above

MERTK, sequence (Q12866 whole entry, looked up): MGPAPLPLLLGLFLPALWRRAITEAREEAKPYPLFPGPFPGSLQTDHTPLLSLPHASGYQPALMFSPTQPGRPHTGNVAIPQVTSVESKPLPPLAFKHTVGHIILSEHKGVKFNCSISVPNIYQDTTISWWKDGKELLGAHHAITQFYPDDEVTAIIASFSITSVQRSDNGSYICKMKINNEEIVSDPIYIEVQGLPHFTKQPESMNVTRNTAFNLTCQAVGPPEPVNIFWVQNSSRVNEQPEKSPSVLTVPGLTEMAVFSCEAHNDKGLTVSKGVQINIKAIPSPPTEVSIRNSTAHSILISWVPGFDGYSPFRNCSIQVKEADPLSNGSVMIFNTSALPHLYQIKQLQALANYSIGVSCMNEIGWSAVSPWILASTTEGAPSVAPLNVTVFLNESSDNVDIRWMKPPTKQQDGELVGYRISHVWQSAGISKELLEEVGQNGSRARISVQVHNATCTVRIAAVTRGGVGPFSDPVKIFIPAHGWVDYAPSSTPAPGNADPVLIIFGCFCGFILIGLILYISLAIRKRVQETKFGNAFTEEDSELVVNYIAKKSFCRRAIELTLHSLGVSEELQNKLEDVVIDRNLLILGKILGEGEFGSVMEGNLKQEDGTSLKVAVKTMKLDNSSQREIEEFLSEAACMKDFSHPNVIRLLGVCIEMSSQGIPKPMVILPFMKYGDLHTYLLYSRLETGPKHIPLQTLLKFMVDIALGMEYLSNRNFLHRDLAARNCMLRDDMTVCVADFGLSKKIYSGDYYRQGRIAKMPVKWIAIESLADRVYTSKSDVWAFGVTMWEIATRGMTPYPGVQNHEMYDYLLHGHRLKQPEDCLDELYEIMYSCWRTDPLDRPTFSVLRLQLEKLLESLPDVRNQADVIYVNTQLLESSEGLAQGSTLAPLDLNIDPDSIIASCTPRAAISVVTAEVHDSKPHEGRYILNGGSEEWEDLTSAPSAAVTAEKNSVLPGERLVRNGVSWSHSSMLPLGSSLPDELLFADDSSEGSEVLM

Row | Sequence | phosphorylation enrichment
64 | AFLGEYIPTVF [RAC2_Y32_P29L] | 0.638
65 | ESMLRYEVFGG [STOX1_Y607_YF] | 1.41
66 | QLQQAYQEAFE [YWHAZ_Y149_S145L] | 1.29
